PMC3384689 (Biochemistry, 2012)

How the values were obtained:
[1] = molecular target: the molecule itself; experiment: SEC-MALS
[2] = test system: full-length FliG; experiment: Size-exclusion chromatography / light scattering, full-length FliG; type: physicochemical, T. maritima; conditions: SEC / static light scattering / refractive index; ~1 mg/mL, 25 mM Tris, 200 mM NaCl, 0.5 mM EDTA, pH 7.4
[3] = molecular target: synthetic FliF_(512–532) peptide of Thermotoga maritima FliF (Thermotoga maritima); experiment: other fluorescence titration
[4] = molecular target: synthetic FliF_(495–532) peptide of Thermotoga maritima FliF (Thermotoga maritima); experiment: other fluorescence titration

B1: full-length Thermotoga maritima FliG (FliGNMC) (natural protein, UniProt Q9WY63 1-335, looked up)
chain: MPEKKIDGRRKAAVLLVALGPEKAAQVMKHLDEETVEQLVVEIANIGRVTPEEKKQVLEEFLSLAKAKEMISEGGIEYAKKVLEKAFGPERARKIIERLTSSLQVKPFSFVRDTDPVQLVNFLQSEHPQTIAVVLSYLDPPVAAQILGALPEELQTEVLKRIALLERTSPEVVKEIERNLEKKISGFVSRTFSKVGGIDTAAEIMNNLDRTTEKKIMDKLVQENPELADEIRRRMFVFEDILKLDDRSIQLVLREVDTRDLALALKGASDELKEKIFKNMSKRAAALLKDELEYMGPVRLKDVEEAQQKIINIIRRLEEAGEIVIARGGGEELIM
B1 was tested, and the “stoichiometry N” value [1] was 2.

B2: full-length FliG: full-length T. maritima FliGNMC, including a N-terminal 6X-His tag (protein)
chain: B1 chain
modifications: left off: 6X-His, N-terminal, state not stated
With B2 the “Calculated Mw of full-length FliG, absence of peptide” value [2] was “≈ 79 kD” and the “Oligomeric state of full-length FliG, absence of peptide” value [2] was “tight dimer”.

B3: Thermotoga maritima FliG N-terminal domain construct, residues 1–102 (FliGN) (domain or fragment, UniProt Q9WY63 1-102, looked up)
chain: MPEKKIDGRRKAAVLLVALGPEKAAQVMKHLDEETVEQLVVEIANIGRVTPEEKKQVLEEFLSLAKAKEMISEGGIEYAKKVLEKAFGPERARKIIERLTSS
modifications: 15N, 2H (and 13C) isotope labelling in the NMR experiments
B3 was tested, and the Kd [3] was 84 nM, the stoichiometry N [4] was 1 and the “stoichiometry N” value [1] was 2.
